In patent publication US10947270B2, “Targeted prodrug cytosine deaminase fusion carrier and application thereof” (National Yang-Ming University, priority 2015, dated 2021):

Key:
[1] = Enzyme activity and kinetic analysis of yCD series recombinant proteins (5-FC converted into 5-FU); type: biochemical; settings: 50 nM protein
Description: FIGS. 2A-2B show the enzyme activities of RGD4C-yCD, yCD, RGD4C-yCD/UPRT and yCD/UPRT proteins to convert 5-FC to 5-FU. 50 nM of RGD4C-yCD, yCD, RGD4C-yCD/UPRT or yCD/UPRT protein reacted with increasing concentrations of 5-FC in phosphate buffered saline solutions. […] The measured data was used to plot the enzyme kinetic curve that takes the substrate concentration [S] as the x-axis and takes the initial reaction rate V0 as the y-axis,
The enzyme activity of 5-FC converted into 5-FU by RGD4C-yCD, yCD, RGD4C-yCD/UPRT and yCD/UPRT is performed. The recombinant protein concentration (50 nM) added with 5-FC at different concentrations. The 5-FC consumption and the generated amount of 5-FU is calculated. The measured data is taken as the x-axis by the substrate concentration [S]; the initial reaction rate V0 is the kinetic curve by making a diagramthe with y-axis (see FIG. 2A and FIG. 2B); the non-linear regression is made by the prism software according to the Michaelis-Menten equation; calculate the enzyme kinetic parameter Km and Vmax. […] It is speculated that the yCD function in each fusion protein is similar, but yUPRT may affect the effects of yCD and 5-FC.

[2] = biological target: integrin αvβ3 receptor (Homo sapiens, UniProt P05106+P06756); test: ELISA binding assay of yCD series recombinant protein to integrin αvβ3 receptor; settings: for decrease of binding to integrin αvβ3 by RGDfv peptide: RGDfv peptide at same concentration
Chain of integrin αvβ3 receptor (P06756 31-889 limits assumed): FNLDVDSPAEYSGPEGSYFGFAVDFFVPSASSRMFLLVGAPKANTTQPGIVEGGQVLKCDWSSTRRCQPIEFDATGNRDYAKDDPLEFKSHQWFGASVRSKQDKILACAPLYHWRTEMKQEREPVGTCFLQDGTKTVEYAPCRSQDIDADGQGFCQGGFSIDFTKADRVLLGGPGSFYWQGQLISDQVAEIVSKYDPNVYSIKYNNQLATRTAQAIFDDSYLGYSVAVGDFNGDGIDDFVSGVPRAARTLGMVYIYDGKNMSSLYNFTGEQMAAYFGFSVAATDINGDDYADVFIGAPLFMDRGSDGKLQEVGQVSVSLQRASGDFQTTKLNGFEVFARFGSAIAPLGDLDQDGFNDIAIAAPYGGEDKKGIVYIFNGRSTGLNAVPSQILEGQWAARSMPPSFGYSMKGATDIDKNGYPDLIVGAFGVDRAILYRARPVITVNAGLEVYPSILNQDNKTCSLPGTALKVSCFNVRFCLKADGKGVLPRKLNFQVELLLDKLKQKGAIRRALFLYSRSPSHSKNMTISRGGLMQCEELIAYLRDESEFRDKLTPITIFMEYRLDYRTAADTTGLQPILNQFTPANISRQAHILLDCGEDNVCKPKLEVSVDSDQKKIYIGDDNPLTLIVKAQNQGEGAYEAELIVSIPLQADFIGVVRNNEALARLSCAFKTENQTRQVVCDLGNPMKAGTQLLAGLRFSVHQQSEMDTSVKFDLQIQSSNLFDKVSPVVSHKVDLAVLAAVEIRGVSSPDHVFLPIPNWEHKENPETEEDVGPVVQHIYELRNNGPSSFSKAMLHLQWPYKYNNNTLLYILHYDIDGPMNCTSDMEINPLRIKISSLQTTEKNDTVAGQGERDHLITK
Chain of integrin αvβ3 receptor (P06756 891-1048 partner limits assumed): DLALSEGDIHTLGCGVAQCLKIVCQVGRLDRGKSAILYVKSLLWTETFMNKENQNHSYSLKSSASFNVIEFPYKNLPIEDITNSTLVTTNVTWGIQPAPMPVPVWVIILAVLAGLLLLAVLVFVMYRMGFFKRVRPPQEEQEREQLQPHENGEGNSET
Chain of integrin αvβ3 receptor (P05106 27-788): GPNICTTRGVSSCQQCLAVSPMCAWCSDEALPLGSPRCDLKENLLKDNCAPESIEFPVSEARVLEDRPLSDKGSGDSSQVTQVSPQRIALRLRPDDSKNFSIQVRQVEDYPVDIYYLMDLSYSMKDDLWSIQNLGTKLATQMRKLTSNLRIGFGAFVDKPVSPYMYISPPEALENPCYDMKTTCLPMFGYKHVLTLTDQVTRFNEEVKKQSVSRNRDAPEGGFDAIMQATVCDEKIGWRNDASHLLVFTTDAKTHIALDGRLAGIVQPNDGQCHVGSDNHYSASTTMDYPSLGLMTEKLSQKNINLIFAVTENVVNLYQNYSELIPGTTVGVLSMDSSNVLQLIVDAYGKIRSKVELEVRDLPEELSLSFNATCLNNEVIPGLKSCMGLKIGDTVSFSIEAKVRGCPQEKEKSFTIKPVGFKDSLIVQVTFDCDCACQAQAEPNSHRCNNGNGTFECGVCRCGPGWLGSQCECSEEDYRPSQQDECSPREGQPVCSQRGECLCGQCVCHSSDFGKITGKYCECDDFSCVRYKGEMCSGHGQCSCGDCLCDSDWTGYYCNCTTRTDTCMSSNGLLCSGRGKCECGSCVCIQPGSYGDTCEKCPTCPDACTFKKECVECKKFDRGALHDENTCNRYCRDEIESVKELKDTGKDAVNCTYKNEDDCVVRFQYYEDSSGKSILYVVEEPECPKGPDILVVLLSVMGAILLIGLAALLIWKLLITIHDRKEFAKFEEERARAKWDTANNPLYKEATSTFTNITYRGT
Description: FIGS. 3A-3B show the binding affinity and specificity of RGD4C-yCD, yCD, RGD4C-yCD/UPRT and yCD/UPRT proteins to integrin αvβ3. The binding affinities of RGD4C-yCD, yCD, RGD4C-yCD/UPRT and yCD/UPRT proteins to integrin αvβ3 were determined by ELISA assay using horseradish peroxidase (HRP)-tagged anti-His6 antibody (FIG. 3A). The dissociation constant Kd is obtained by prism software with curve fitting method. […] (*compared with untreated RGDfv group, P<0.05)
The specific binding ability of RGD4C-yCD, yCD, RGD4C-yCD/UPRT and yCD/UPRT recombinant protein to integrin αvβ3 receptor is analyzed by ELISA binding assay, plotted with prism software and made with curve fitting to find the dissociation constant Kd value.

[3] = tested on: HUVEC cells; test: Specific binding assay of yCD series recombinant protein and cell (cell ELISA); type: cell-based, human; settings: HUVEC versus MCF-7
Description: (§1) FIG. 5A, FIG. 5B, and FIG. 5C are respectively represented HUVEC cells, U87MG cells, MCF-7 cells seeded in 96-well plates for 24 hours, and then RGD4C-yCD, yCD, RGD4C-yCD/UPRT and yCD/UPRT with different concentrations are added for cells binding assay. After reacted with anti-His-HRP antibody and TMB substrate, ELISA reader (OD450 nm) is used to detect the amount of recombinant protein bound to the cells, and the binding curve is drawn. The nonlinear curve of the prism software is used to make a diagram and calculate the dissociation constant (Kd).
(§2) The anti-His6-Tag-HRP antibody and TMB show the color reagent to detect the amount of recombinant protein bound to the cell, then the dissociation constant Kd value of the recombinant protein and the integrin αvβ3 receptor is calculated and a binding curve is drawn. […] The cell binding ability of RGD4C-yCD for HUVEC and U87MG are about 7.7 folds and 6.8 folds higher than MCF-7 respectively. The cell binding ability of RGD4C-yCD/UPRT for HUVEC and U87MG are about 6.9 folds and 5.8 folds higher than MCF-7 respectively. […] It is shown that RGD4C-yCD and RGD4C-yCD/UPRT are specially bound with integrin αvβ3 through RGD4C sequence.

[4] = tested on: HUVEC and U87MG cells; test: Fluorescence microscopy of binding and distribution of yCD series fusion proteins; type: cell-based, human; settings: 500 nM protein, 2 hours
Description: (FIG. 8A) or 37° C. […] (FIG. 8C) or 37° C. (FIG. 8D) for 2 hours, and then the fluorescent staining is performed for the cells, and the confocal fluorescence microscope is used to observe the distribution of protein in cells. (Green signal: β3 integrin; red signal: anti-His6-tag (also represents the signal of the fusion protein); blue signal: Hoechst 33342 cell nuclear stain) (Calibration scale: 20 μm).
HUVEC and U87MG cells are co-cultured with culture medium containing 500 nM RGD4C-yCD and RGD4C-yCD/UPRT protein at 4° C. and 37° C. for 2 hours, then the cells are stained with fluorescence, and the distribution in the cell is observed by conjugated fluorescence microscopy.

[5] = tested on: HUVEC, U87MG and MCF-7 cells; test: Specific binding assay of yCD series recombinant protein and cell, statement for the three cells; type: cell-based, human
Description: as §1, §2

[6] = Enzyme kinetic analysis of yCD series proteins after DTPA modification, marking and purification; type: biochemical
Description: The enzyme activity of yCD is not affected by DTPA modification.
FIGS. 24A-24B show the kinetic curve of yCD series protein modified, labeled and purified by DTPA. The enzyme activity of the two proteins is not affected by the labeling conditions. After adding EDTA with a 10-fold molar excess of protein, and it is competitively purified, In-DTPA-yCD compared with the original enzyme activity.
The curve and enzyme kinetic parameters (see FIG. 18 and Table 13) are fitted by the […] protein enzyme kinetics through the Michaelis-Menten formula in the Graph prism program.
Before the protein is labeled by radioisotope, its enzyme function must be determined, and based on the original enzyme function, it should be examined whether it will be affected during the radioactive marking process. The curve and enzyme kinetic parameters of protein are fitted by the Michaelis-Menten formula in the Graph prism program. […] Whether the yCD and RGD4C-yCD protein detected by the same method will be affected under the conditions of DTPA modification, marking and purification. […] After the completion of the radioactive metal mark, it is necessary to add EDTA of 10-fold protein Moire number and react at room temperature for 1 hour to compete for the radioactive metal isotope indium which is not chelated on DTPA. The EDTA in this step also has the chance to chelate the metal zinc ion of the enzyme catalytic center, the enzyme activity is impaired, so it is necessary to analyze the enzyme activity of In-DTPA-yCD and In-RGD4C-yCD protein after competition with EDTA. After the EDTA competitive reaction is completed, the enzyme kinetics analysis can be carried out by reducing the EDTA molecule weight through membrane centrifugation method and by replacing the solution with pH 7.0. […] The curve and receptor binding ability parameters of the protein and integrin αvβ3 are fitted under the conditions of DTPA modification, marking and purification by the One site-Specific binding formula in the Graph prism program (see FIG. 25 and Table 18). […] Although the two proteins after marking are greatly affected by the enzyme activity, they still have good binding ability to the integrin αvβ3 receptor. In consideration of the indispensability of EDTA for radiochemical purity, it retains a considerable amount of enzyme activity. In addition, the effect of integrin αvβ3 receptor binding ability is minimal, in combination of cell uptake, biodistribution and angiography experiment, focusing on the evaluation of target results, and the subsequent biological experiment is still carried out by the marking and purification conditions.

B1: RGD4C-yCD/UPRT: targeted prodrug enzyme fusion protein (SEQ ID NO: 4) (protein)
chain: MACDCRGDCFCVTGGMASKWDQKGMDIAYEEAALGYKEGGVPIGGCLINNKDGSVLGRGHNMRFQKGSATLHGEISTLENCGRLEGKVYKDTTLYTTLSPCDMCTGAIIMYGIPRCVVGENVNFKSKGEKYLQTRGHEVVVVDDERCKKIMKQFIDERPQDWFEDIGEASEPFKNVYLLPQTNQLLGLYTIIRNKNTTRPDFIFYSDRIIRLLVEEGLNHLPVQKQIVETDTNENFEGVSFMGKICGVSIVRAGESMEQGLRDCCRSVRIGKILIQRDEETALPKLFYEKLPEDISERYVFLLDPMLATGGSAIMATEVLIKRGVKPERIYFLNLICSKEGIEKYHAAFPEVRIVTGALDRGLDENKYLVPGLGDFGDRYYCVLEHHHHHH
modifications: RGD4C_yCD_yUPRT
**Q.** Which results are given for B1?
**A.** Km ([1]; calculated by 5-FC consumption): 1.2 ± 0.2 mM; Vmax ([1]; calculated by 5-FC consumption): 147.0 ± 5.9 µM/min; Km ([1]; calculated by 5-FU formation): 1.2 ± 0.2 mM; Vmax ([1]; calculated by 5-FU formation): 109.2 ± 10.1 µM/min; decrease of binding to integrin αvβ3 by RGDfv peptide [2]: 50%; cell binding ability higher than MCF-7 [3]: about 6.9 folds; binding and distribution in cells ([4]; 4° C.): only bound to HUVEC and U87MG cell surface; binding and distribution in cells ([4]; 37° C.): enter the inside of HUVEC and U87MG cells through endocytosis

B2: yCD/UPRT: recombinant fusion of yCD and yUPRT without target molecule (protein)
chain: MVVTGGMASKWDQKGMDIAYEEAALGYKEGGVPIGGCLINNKDGSVLGRGHNMRFQKGSATLHGEISTLENCGRLEGKVYKDTTLYTTLSPCDMCTGAIIMYGIPRCVVGENVNFKSKGEKYLQTRGHEVVVVDDERCKKIMKQFIDERPQDWFEDIGEASEPFKNVYLLPQTNQLLGLYTIIRNKNTTRPDFIFYSDRIIRLLVEEGLNHLPVQKQIVETDTNENFEGVSFMGKICGVSIVRAGESMEQGLRDCCRSVRIGKILIQRDEETALPKLFYEKLPEDISERYVFLLDPMLATGGSAIMATEVLIKRGVKPERIYFLNLICSKEGIEKYHAAFPEVRIVTGALDRGLDENKYLVPGLGDFGDRYYCVLEHHHHHH
**Q.** With B2 as the molecule, how does the Km ([1]; calculated by 5-FC consumption) read?
**A.** The Km was 1.2 ± 0.1 mM.

**Q.** And the Vmax ([1]; calculated by 5-FC consumption)?
**A.** Its Vmax is 137.2 ± 3.6 µM/min.

**Q.** What about the Km ([1]; calculated by 5-FU formation) of the same molecule?
**A.** Its Km is 1.2 ± 0.1 mM.

**Q.** And the Vmax ([1]; calculated by 5-FU formation)?
**A.** The Vmax was 112.7 ± 8.1 µM/min.

**Q.** What about the “binding to integrin αvβ3” value ([2]; ELISA) of the same molecule?
**A.** Its value is “cannot be bound”.

**Q.** What about the “binding to the three cells” value [5] of the same molecule?
**A.** The value was “weak binding”.

**Q.** What about the “binding and distribution in cells” value ([4]; 4° C.) of the same molecule?
**A.** Its value is “can not be effectively bound”.

B3: RGD4C-yCD: targeted prodrug enzyme fusion protein of RGD4C and yCD (SEQ ID NO: 3) (protein)
chain: MACDCRGDCFCVTGGMASKWDQKGMDIAYEEAALGYKEGGVPIGGCLINNKDGSVLGRGHNMRFQKGSATLHGEISTLENCGRLEGKVYKDTTLYTTLSPCDMCTGAIIMYGIPRCVVGENVNFKSKGEKYLQTRGHEVVVVDDERCKKIMKQFIDERPQDWFEDIGELEHHHHHH
modifications: RGD4C_yCD
**Q.** With B3 as the molecule, how does the Km ([1]; calculated by 5-FC consumption) read?
**A.** The Km was 0.6 ± 0.1 mM.

**Q.** What about the Vmax ([1]; calculated by 5-FC consumption) of the same molecule?
**A.** Its Vmax is 179.5 ± 4.7 µM/min.

**Q.** What about the Km ([1]; calculated by 5-FU formation) of the same molecule?
**A.** The Km was 0.9 ± 0.1 mM.

**Q.** What about the Vmax ([1]; calculated by 5-FU formation) of the same molecule?
**A.** Its Vmax is 167.7 ± 4.6 µM/min.

**Q.** What about the “decrease of binding to integrin αvβ3 by RGDfv peptide” value [2] of the same molecule?
**A.** Its value is 50%.

**Q.** What about the “cell binding ability higher than MCF-7” value [3] of the same molecule?
**A.** Its value is “about 7.7 folds”.

**Q.** And the “binding and distribution in cells” value ([4]; 4° C.)?
**A.** The value was “only bound to HUVEC and U87MG cell surface”.

**Q.** What about the “binding and distribution in cells” value ([4]; 37° C.) of the same molecule?
**A.** The value was “enter the inside of HUVEC and U87MG cells through endocytosis”.

**Q.** What about the Km [6] of the same molecule?
**A.** The Km was 1 ± 0.0732 mM.

**Q.** And the Vmax [6]?
**A.** Its Vmax is 288.7 ± 8.883 µM/min.
